Laboratory results published in patent publication US20220242973A1 (Molecular Partners, published 2022).

T1: Human FAP expressed on the cell surface (WI38, CHO-FAP1.9, U87MG cells) (human, UniProt Q12884 1-760)
T1 construct: whole, on cells; Endogenous on WI38 and U87MG cells; from a human FAP cDNA (OriGene) in CHO-FAP1.9 cells; also called hFAP; FAP+ cells
T1 sequence (looked up): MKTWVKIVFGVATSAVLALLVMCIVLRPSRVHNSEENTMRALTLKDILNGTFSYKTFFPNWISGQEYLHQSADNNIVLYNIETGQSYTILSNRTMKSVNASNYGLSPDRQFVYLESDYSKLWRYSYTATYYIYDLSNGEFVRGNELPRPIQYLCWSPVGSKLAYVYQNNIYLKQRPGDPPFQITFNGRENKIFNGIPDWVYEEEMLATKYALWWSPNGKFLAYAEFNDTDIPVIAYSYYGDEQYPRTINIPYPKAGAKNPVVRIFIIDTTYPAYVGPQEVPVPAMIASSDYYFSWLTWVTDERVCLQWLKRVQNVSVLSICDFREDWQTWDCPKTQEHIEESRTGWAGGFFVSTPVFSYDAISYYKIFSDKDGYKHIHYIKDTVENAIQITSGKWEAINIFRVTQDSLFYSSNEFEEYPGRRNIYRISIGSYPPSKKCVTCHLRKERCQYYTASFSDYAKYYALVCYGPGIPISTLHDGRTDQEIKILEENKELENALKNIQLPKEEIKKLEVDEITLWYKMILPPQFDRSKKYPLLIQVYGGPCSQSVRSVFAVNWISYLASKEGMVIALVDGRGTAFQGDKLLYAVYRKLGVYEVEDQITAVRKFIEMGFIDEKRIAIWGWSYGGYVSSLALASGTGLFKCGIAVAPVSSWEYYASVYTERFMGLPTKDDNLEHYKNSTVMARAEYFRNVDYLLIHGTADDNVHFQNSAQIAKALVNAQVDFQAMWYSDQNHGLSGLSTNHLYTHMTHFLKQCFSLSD

T2: Recombinant human FAP (fibroblast activation protein) (human, UniProt Q12884 26-760)
T2 construct: Bought soluble recombinant protein; Chemically biotinylated for the HTRF screen; also called hFAP; biotinylated human FAP
T2 sequence (looked up): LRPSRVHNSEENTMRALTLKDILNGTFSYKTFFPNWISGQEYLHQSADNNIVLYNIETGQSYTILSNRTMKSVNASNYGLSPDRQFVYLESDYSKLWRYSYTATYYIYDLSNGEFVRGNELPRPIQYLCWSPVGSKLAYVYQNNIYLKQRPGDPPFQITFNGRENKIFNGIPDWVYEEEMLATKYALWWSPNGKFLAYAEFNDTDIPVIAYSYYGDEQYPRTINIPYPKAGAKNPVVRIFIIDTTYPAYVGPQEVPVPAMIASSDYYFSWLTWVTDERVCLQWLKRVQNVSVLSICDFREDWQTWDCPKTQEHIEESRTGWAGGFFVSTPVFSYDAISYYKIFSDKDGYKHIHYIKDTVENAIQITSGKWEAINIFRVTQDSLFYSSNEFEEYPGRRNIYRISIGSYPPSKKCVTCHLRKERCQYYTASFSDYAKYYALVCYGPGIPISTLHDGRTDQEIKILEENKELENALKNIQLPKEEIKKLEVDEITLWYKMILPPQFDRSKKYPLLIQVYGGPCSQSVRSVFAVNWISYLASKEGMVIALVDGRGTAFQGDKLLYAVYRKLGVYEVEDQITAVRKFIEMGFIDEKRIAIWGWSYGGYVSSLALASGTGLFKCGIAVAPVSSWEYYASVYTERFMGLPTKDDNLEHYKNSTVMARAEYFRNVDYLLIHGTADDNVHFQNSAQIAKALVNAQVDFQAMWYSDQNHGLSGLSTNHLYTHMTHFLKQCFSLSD


How the values were obtained:
[1] = biological target: T1, Human FAP expressed on the cell surface …; assay: FACS on FAP-expressing WI38 cells, Penta-His AF647 detection
Procedure: Using multi-well plates, 20,000 WI38 cells were added per well in 50 μl of PBS. 50 μl of appropriate dilutions (2× dilution steps) of ankyrin repeat protein was then added to the cells and incubated for 30 minutes on ice. After the ankyrin repeat protein-binding reaction, cells were washed twice with PBS. Direct immunofluorescent detection of the His-tagged ankyrin repeat proteins using Penta-His AF647 conjugate (QIAgen) and determination of live cells using LIVE/DEAD™ Fixable Green Dead Cell Stain Kit (ThermoFisher) were then performed together in one step. The Penta-His AF647 conjugate and the LIVE/DEAD™ Fixable Green dye were applied to the cells together in 1/200 (Penta-His) and 1/1000 (LID Fixable) final dilutions and incubated for 20-30 minutes on ice. After washing the cells with PBS, cells were re-suspended in 1× CellFix™ buffer (BD Biosciences) (10× stock was diluted 1/10 in water). The samples were incubated in CellFix™ buffer for 15-20 minutes at RT, then spun down at 400 g for 5 min. Supernatant was discarded and cells were re-suspended in 200 μl PBS and stored at 4° C. until acquisition and FACS analysis. Acquisition and FACS analysis, including the determination of median fluorescence intensity (MFI), were done within 5 days after staining using an AttuneNxT instrument. Binding curves were fitted by non-linear regression curve fitting using GraphPad Prism software (v 7.0.4).
EC₅₀ values were determined using standard procedures known to the person skilled in the art. […] Table 2 provides the EC₅₀ values of selected ankyrin repeat proteins as examples.

[2] = biological target: T2, Recombinant human FAP (fibroblast …); assay: SPR (ProteOn), human FAP immobilized on GLC chip
Procedure: Briefly, human FAP was diluted in 10 mM Na-acetate pH 5.3 buffer and covalently immobilized on a GLC chip (BioRad) to a level of around 2000 resonance units (RU). The interaction of ankyrin repeat protein and hFAP was then measured by injecting 200 μl running buffer (PBS, pH 7.4 containing 0.005% Tween 20®) containing serial dilutions of ankyrin repeat proteins covering a concentration range between 30 nM and 0.5 nM (on-rate measurement), followed by a running buffer flow for at least 25 minutes at a constant flow rate of 100 μl/min (off-rate measurement). The regeneration was performed using 15 μl of 10 mM Glycine pH 2 followed by 15 μl of 124 mM H₃PO₄. The signals (i.e. resonance unit (RU) values) of the interspots and a reference injection (i.e. injection of running buffer only) were subtracted from the RU traces obtained after injection of ankyrin repeat protein (double-referencing). Based on the SPR traces obtained from the on-rate and off-rate measurements, the on- and off-rate of the corresponding ankyrin repeat protein—FAP interaction was determined.
Dissociation constants (KD) were calculated from the estimated on- and off-rates using standard procedures known to the person skilled in the art. […] Table 1 provides the KD values of some selected ankyrin repeat proteins as examples.

[3] = biological target: T2, Recombinant human FAP (fibroblast …); assay: cell-based or functional assay

Row | Binder | EC50 [1] [nM] | Kd [2] [nM] | FAP activity (%) [3] [%]
1 | DARPin® protein #2 (designed binder) MRGSHHHHHHGSYPYDVPDYAGSDLGKKLLEAARAGQDDEVRILLAAGADINAKDKYGVTPLHLAAWAGHLEIVEVLLKAGADVNAKDQSGFTPLHLAAHRGHLEIVEVLLKAGADVNAKDYRGFTPLHLAAEDGHLEIVEVLLKAGADVNAQDKSGKTPADLAADAGHEDIAEVLQKLN | 5.26 | 8.24 | 117
2 | DARPin® protein #21 (designed binder) MRGSHHHHHHGSYPYDVPDYAGSDLGQKLLNAAFIGQDDEVRILLAAGAGVNAKDRHGHTPLHVTAHHGHLEIVEVLLKAGTDVNAKDNQGNTPLHVAAEADHLEIVEVLLKAGADVNAQDAHGRTPADLAAQLGHEDIAEVLQKLN | 2.19 | 0.885 | 108
3 | DARPin® protein #22 (designed binder) MRGSHHHHHHGSYPYDVPDYAGSDLGDKLLTAANYGQDDEVRILLAAGADVNAKDRFGHTPLHVAAHFGHLEIVEVLLKAGADVNAKDSLGHTPLHLAAEAGHLEIVEVLLKAGADVNAQDFHGITPADLAAHQGHEDIAEVLQKLN | 1.22 | 3.4 | 100
4 | DARPin® protein #23 (designed binder) MRGSHHHHHHGSYPYDVPDYAGSDLGLKLLSAAQVGQDDEVRILLAAGADVNVKDQFGHTPLHVATHFGHLEIVEVLLKAGADVNAKDALGHTPLHLAAEAGHLEIVEVLLKAGADVNAQDAHGRTPADLAAQLGHEDIAEVLQKLN | 1.82 | 2.78 | 100
5 | DARPin® protein #24 (designed binder) MRGSHHHHHHGSYPYDVPDYAGSDLGEKLLEAARRGQDDEVRELLKAGADVNAKDRYGITPLHLAAFLGHLEIVEVLLKDGADVNAKDEWGATPLHVAAYKGHLEIVEVLLKAGADVNAQDLYGKTPADLAAEQGHEDIEEVLQKLN | 4.49 | 1.47 | 102
6 | DARPin® protein #7 (designed binder) MRGSHHHHHHGSYPYDVPDYAGSDLGKKLLEAARAGQDDEVRELLKAGADVNAKDEWGKTPLHLAAALGHLEIVEVLLKAGADVNAKDAWGATPLHVAAFAGHLEIVEVLLKAGADVNAKDTIGFTPLHLAAHSGHLEIVEVLLKAGADVNAQDKSGKTPADLAADAGHEDIVEVLQKLN | 1.45 | 0.744 | 123
7 | DARPin® protein #3 (designed binder) MRGSHHHHHHGSYPYDVPDYAGSDMGKKLLEAARAGQDDEVRILMANGADVNAFDQVGRTPLHLDALAGHLEIVEVLLKHGADVNAADMFGITPLHLAAFIGHLEIVEVLLKHGADVNAYDLDGRTPLHPAAYHGHLEIVEVLLKNGADVNAQDKFGKTAFDISIDNGNEDLAEILQKLN | 5.72 | 5.43 | 116

These reach a lower EC50 [1]. Values come first.

Row | EC50 [1] [nM] | Kd [2] [nM] | FAP activity (%) [3] [%] | Binder
8 | 1.13 | 0.255 | 109 | DARPin® protein #29 (designed binder) MRGSHHHHHHGSYPYDVPDYAGSDLGKKLLEAARAGQDDEVRELLKAGADVNAKDTIGRTPLHIAARYGHLEIVEVLLKAGADVNAKDVYDITPLHLAAFLGHLEIVEVLLKAGADVNAKDYEGTTPLHVAAWHGHLEIVEVLLKAGADVNAQDKSGKTPADLAADAGHEDIAEVLQKLN
9 | 0.918 | 0.527 | 138 | DARPin® protein #32 (designed binder) MRGSHHHHHHGSYPYDVPDYAGSDLGKKLLEAARAGQDDEVRELLKAGADVNAKDEWDKTPLHLAAALDHLEIVEVLLKAGADVNAKDQYGATPLHVAAFAGHLEIVEVLLKAGADVNAKDLFGWTPLHLAALRGHLEIVEVLLKAGADVNAQDKSGKTPADLAADAGHEDIVEVLQKLN
10 | 0.781 | 0.15 | 103 | DARPin® protein #28 (designed binder) MRGSHHHHHHGSYPYDVPDYAGSDLGKKLLEAARAGQDDEVRELLKAGADVNAKDEWGKTPLHYAAALGHLEIVEVLLKAGADVNAKDRWGATPLHIAAFAGHLEIVEVLLKAGADVNAKDEVGWTPLHLAARSGHLEIVEVLLKVGADVNAQDKSGKTPADLAADAGHEDIVEVLQKLN
11 | 0.664 | 0.441 | 110 | DARPin® protein #27 (designed binder) MRGSHHHHHHGSYPYDVPDYAGSDLGKKLLEAARAGQDDEVRELLKAGADVNAKDEWDKTPLHYAAALGHLEIVEVLLKAGADVNAKDVWGATPLHIAAFAGHLEIVEVLLKAGADVNAKDTLGYTPLHLAATRGHLEIVEALLKAGADVNAQDKSGKTPADLAADVGHEDIAEVLQKLN
12 | 0.33 | < 0.01 | 93 | DARPin® protein #15 (designed binder) MRGSHHHHHHGSYPYDVPDYAGSDLGKKLLEAARAGQDDEVRILMANGADVNAFDAIGRTPLHLAALYGHLEIVEVLLKHVADVNATDEYGITPLHLAAFMGHLEIVEVLLKYGADVNAIDFDGRTPLHPAAYRGHLEIVEVLLKHGADVNAQDKFGKTAFDISIDNGNEDLAEILQKLN
13 | 0.246 | 0.007 | 86 | DARPin® protein #14 (designed binder) MRGSHHHHHHGSYPYDVPDYAGSDLGKKLLEAARAGQDDEVRILLAAGADVNAKDYSGRTPLHLAALTGHLEIVKVLLKHGADVNASDDYGITPLHLDAFIGHLEIVEVLLKNGADVNAMDYQGRTPLHPAAYTGHLEIVEVLLKYGADVNAQDKFGKTAFDISIDNGNEDLAEILQKLN
